B1: T7 sigma-like fragment with 601 split + SZ18 (other)
chain: MSIAATLENDLARLENENARLEKDIANLERDLAKLEREEAYFGGSGGKNTGEISEKVKLGTKALAGQWLAYGVTRSVTKSSVMTLAYGSKEFGFRQQVLEDTIQPAIDSGKGLMFTQPNQAAGYMAKLIWESVSVTVVAAVEAMNWLKSAAKLLAAEVKDKKTGEILRKRCAVHWVTPDGFPVWQEYKKPIQTRLNLMFLGQFRLQPTINTNKDSEIDAHKQESGIAPNFVHSQDGSHLRKTVVWAHEKYGIESFALIHDSFGTIPADAANLFKAVRETMVDTYESCDVLADFYDQFADQLHESQLDKMPALPAKGNLNLRDILESDFAFA
notes: also called T7 fragment; variable fragment
B2: T3 sigma-like fragment with 601 split + SZ18 (other)
chain: MSIAATLENDLARLENENARLEKDIANLERDLAKLEREEAYFGGSGGKNTGEISEKVKLGTKALAGQWLAYGVTRSVTKRSVMTLAYGSKEFGFRQQVLEDTIQPAIDSGKGLMFTQPNQAAGYMAKLIWESVSVTVVAAVEAMNWLKSAAKLLAAEVKDKKTGEILRKRCAVHWVTPDGFPVWQEYKKPIQKRLDMIFLGQFRLQPTINTNKDSEIDAHKQESGIAPNFVHSQDGSHLRKTVVWAHEKYGIESFALIHDSFGTIPADAANLFKAVRETMVDTYESCDVLADFYDQFADQLHESQLDKMPALPAKGNLNLRDILESDFAFA
notes: also called T3 fragment; T3 sigma factor
B3: K1FR sigma-like fragment with 601 split + SZ18 (other)
chain: MSIAATLENDLARLENENARLEKDIANLERDLAKLEREEAYFGGSGGKNTGEISEKVKLGTKALAGQWLAYGVTRSVTKRSVMTLAYGSKEFGFRQQVLEDTIQPAIDSGKGLMFTQPNQAAGYMAKLIWESVSVTVVAAVEAMNWLKSAAKLLAAEVKDKKTGEILRKRCAVHWVTPDGFPVWQEYKKPIQTRLNLRFLGSFNLQPTVNTNKDSEIDAHKQESGIAPNFVHSQDGSHLRKTVVWAHEKYGIESFALIHDSFGTIPADAANLFKAVRETMVDTYESCDVLADFYDQFADQLHESQLDKMPALPAKGNLNLRDILESDFAFA

The binders below were run against T1, Core fragment with 601 split + SZ17 (Bacteriophage T7, UniProt P00573 1-601) (assay: reporter assay in cells: core at a constant level, sigma-like fragment induced, promoter->sfgfp read by flow cytometry).
T1 construct: Expressed constitutively in cells from a single copy plasmid, not purified; also called conserved fragment; 1-601 fragment
T1 sequence (P00573 1-601, tags or fused parts left off): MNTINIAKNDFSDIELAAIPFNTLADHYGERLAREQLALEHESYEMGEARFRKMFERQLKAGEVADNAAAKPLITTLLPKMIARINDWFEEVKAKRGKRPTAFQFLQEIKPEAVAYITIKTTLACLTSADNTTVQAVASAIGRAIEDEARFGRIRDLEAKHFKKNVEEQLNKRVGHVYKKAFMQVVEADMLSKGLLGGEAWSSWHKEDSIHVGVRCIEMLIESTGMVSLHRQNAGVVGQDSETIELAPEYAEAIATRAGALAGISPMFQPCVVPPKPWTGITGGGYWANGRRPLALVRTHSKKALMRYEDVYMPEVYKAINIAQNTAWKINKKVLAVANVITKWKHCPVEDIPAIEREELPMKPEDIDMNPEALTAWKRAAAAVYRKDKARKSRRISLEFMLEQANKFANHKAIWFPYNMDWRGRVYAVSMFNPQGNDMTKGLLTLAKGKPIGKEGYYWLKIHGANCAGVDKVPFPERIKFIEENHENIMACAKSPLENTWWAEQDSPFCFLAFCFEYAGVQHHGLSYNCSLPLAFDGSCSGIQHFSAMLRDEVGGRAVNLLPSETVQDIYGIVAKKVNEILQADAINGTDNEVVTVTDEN
Experimental: Cells containing the three test plasmids (constitutive expression of core, promoter->sfgfp reporter, and pTac->sigma-like fragment) were inoculated into 0.5 mL LB+antibiotics and grown to saturation overnight. The overnight cultures were diluted 1:200 into 0.15 mL LB+antibiotics+100 μM IPTG and grown at 37° C., 1000 rpm for 6 hours. The fluorescence of the cells was quantified using a flow cytometer (FIG. 8). The assay was performed on three separate days, with three technical replicates per day. Data shown is the average value over all three days, with error bars representing the standard deviation between the mean values on each day.
B1: binds.
B2: binds.
B3: binds.
